Reference: the supplement of paper PMC7877785
± gives the uncertainty stated by the source.

Assay: self-splicing fitness, log relative to wild type (ln ratio); higher = more splicing; Tetrahymena group I intron in knt gene, E. coli kanamycin selection, DiMSum; sequences stand for … in CUCUCU…GGAGGGAAAAGUUAUCAGGCAUGCACCUGGUAGCUAGUCUUUAAACCAAUAGAUUGCAUCGGUUUAAAAGGCAAGACCGUCAAAUUGCGGGAAAGGGGUCAACAGCCGUUCAGUACCAAGUCUCAGGGGAAACUUUGAGAUGGCCUUGCAAAGGGUAUGGUAAUAAGCUGACGGACAUGGUCCUAACCACGCAGCCAAGUCCUAAGUCAACAGAUCUUCUGUUGAUAUGGAUGCAGUUCACAGACUAAAUGUCGGUCGGGGAAGAUGUAUUCUUCUCAUAAGAUAUAGUCGGACCUCUCCUUAAUGGGAGCUAGCGGAUGAAGUGAUGCAACACUGGAGCCGCUGGGAACUAAUUUGUAUGCGAAAGUAUAUUGAUUAGUUUUGGAGUACUCGUGGUCG
Procedure, shortened: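 Fitness was computed with DiMSum as the error-weighted combination of replicate fold changes, kanamycin versus none, each normalised to wild type. The library randomised all eight intron nucleotides of the P1ex region, with the intron placed in the knt kanamycin-resistance gene on pET-22b(+) in E. coli BL21(DE3). Six replicate transformations were grown overnight at 37°C or 30°C on LB agar with or without 25 μg/mL kanamycin, plus 100 μg/mL carbenicillin, 50 μM IPTG and 0.2% rhamnose. Pooled colonies were amplicon-sequenced on an Illumina HiSeq 2500.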

Row | Sequence | self-splicing fitness (ln) (30 °C) | self-splicing fitness (ln) (37 °C)
1 | GGUGAGCAAUAUUACGGGUC | -1.98 ± 0.11 | -2.4 ± 0.15
2 | GAACAGCAAUAUUACGCGCG | -0.924 ± 0.064 | -0.265 ± 0.085
3 | UUUAAGCAAUAUUACGGCCU | -1.69 ± 0.14 | -0.999 ± 0.17
4 | GGGUAGCAAUAUUACGAAUA | -0.00785 ± 0.18 | -0.878 ± 0.18
5 | ACAUAGCAAUAUUACGGCCG | -0.333 ± 0.15 | 0.385 ± 0.24
6 | UUCAAGCAAUAUUACGAGCU | -2.99 ± 0.23 | -1.33 ± 0.18
7 | GGUGAGCAAUAUUACGCCGA | -2.06 ± 0.46 | -1.46 ± 0.48
8 | AAGUAGCAAUAUUACGCCUG | -0.259 ± 0.14 | -0.00805 ± 0.14
9 | CCCGAGCAAUAUUACGGUAG | -3.16 ± 0.18 | -2.35 ± 0.17
10 | AAACAGCAAUAUUACGUGGC | -3.05 ± 0.2 | -2.35 ± 0.14
11 | CGCCAGCAAUAUUACGUUCA | -2.8 ± 0.12 | -1.86 ± 0.11
12 | UAGAAGCAAUAUUACGGAAU | -2.11 ± 0.18 | -2.38 ± 0.36
13 | GUAGAGCAAUAUUACGAAGA | -3.65 ± 0.29 | -2.22 ± 0.43
14 | CACCAGCAAUAUUACGACAA | -2.61 ± 0.23 | -2.73 ± 0.2
15 | CCGCAGCAAUAUUACGGAUA | -4.16 ± 0.22 | -2.91 ± 0.23
16 | UUGUAGCAAUAUUACGUAUC | -4.12 ± 0.31 | -3.03 ± 0.31
17 | CCGAAGCAAUAUUACGCGUU | -4.01 ± 0.16 | -2.4 ± 0.12
18 | UGGGAGCAAUAUUACGCGAG | -1.25 ± 0.19 | -2.26 ± 0.27
19 | ACCCAGCAAUAUUACGGGAU | -2.6 ± 0.085 | -1.01 ± 0.076
20 | ACCUAGCAAUAUUACGAAUC | -2.94 ± 0.15 | -1.07 ± 0.13
21 | ACGAAGCAAUAUUACGUGGU | -3.5 ± 0.16 | -2.95 ± 0.15
22 | CCCGAGCAAUAUUACGGUCU | -2.83 ± 0.21 | -1.85 ± 0.23
23 | GUACAGCAAUAUUACGUCAU | -1.7 ± 0.09 | -1.13 ± 0.11
24 | UGCAAGCAAUAUUACGCUAU | -2.7 ± 0.088 | -1.49 ± 0.088
25 | GACAAGCAAUAUUACGACUG | -0.381 ± 0.056 | -0.0494 ± 0.092
26 | UGUCAGCAAUAUUACGAUCU | -0.397 ± 0.091 | 0.0205 ± 0.1

Row | Sequence | self-splicing fitness (ln) (30 °C) | self-splicing fitness (ln) (37 °C)
27 | UUACAGCAAUAUUACGCGAG | -1.02 ± 0.085 | -0.72 ± 0.08
28 | CGUAAGCAAUAUUACGACAC | -2.84 ± 0.14 | -2.55 ± 0.16
29 | AUACAGCAAUAUUACGAUUU | -0.0463 ± 0.053 | 0.498 ± 0.073
30 | CGAUAGCAAUAUUACGCUUU | -3.56 ± 0.35 | -3.14 ± 0.34
31 | UCACAGCAAUAUUACGCACG | -1.22 ± 0.091 | -0.319 ± 0.14
32 | UUAUAGCAAUAUUACGAGUG | -1.06 ± 0.11 | -1.32 ± 0.2
33 | GUUUAGCAAUAUUACGAACG | -1.78 ± 0.21 | -1.03 ± 0.29
34 | UAGCAGCAAUAUUACGCAGC | -2.6 ± 0.22 | -1.75 ± 0.19
35 | CGUAAGCAAUAUUACGAUGC | – | -2.04 ± 0.26
36 | UACAAGCAAUAUUACGCCCG | 0.87 ± 0.18 | 0.761 ± 0.23
37 | GGCCAGCAAUAUUACGUCCU | -1.47 ± 0.21 | -0.4 ± 0.17
38 | UCUUAGCAAUAUUACGAUUC | -2.05 ± 0.44 | –
39 | GAAUAGCAAUAUUACGUAUG | -1.56 ± 0.12 | -1.04 ± 0.18
40 | CGCAAGCAAUAUUACGUACG | -2.03 ± 0.086 | -0.768 ± 0.1
41 | CCGUAGCAAUAUUACGGGAA | – | -2.04 ± 0.31
42 | CCCCAGCAAUAUUACGUUUC | -4.32 ± 0.28 | -2.36 ± 0.23
43 | GAGUAGCAAUAUUACGCAUU | -3.07 ± 0.13 | -2.07 ± 0.12
44 | CUAAAGCAAUAUUACGUUCG | 0.342 ± 0.064 | 0.478 ± 0.082
45 | GGUGAGCAAUAUUACGAGAU | – | -2.44 ± 0.24
46 | AAAUAGCAAUAUUACGGAUG | -2.5 ± 0.16 | -0.984 ± 0.12
47 | AUUAAGCAAUAUUACGACGC | -0.389 ± 0.11 | 0.175 ± 0.14
48 | ACAGAGCAAUAUUACGCUCG | -1.05 ± 0.13 | -1.12 ± 0.2
49 | GAGGAGCAAUAUUACGACAG | -1.38 ± 0.36 | -1.5 ± 0.39
50 | UGCGAGCAAUAUUACGGCUC | -2.91 ± 0.31 | -3.21 ± 0.41
51 | ACAGAGCAAUAUUACGCCAC | -2.45 ± 0.38 | -1.33 ± 0.43
52 | GGUCAGCAAUAUUACGGUCG | -0.085 ± 0.066 | 0.661 ± 0.09

Row | Sequence | self-splicing fitness (ln) (30 °C) | self-splicing fitness (ln) (37 °C)
53 | GAGGAGCAAUAUUACGGUCA | -2.76 ± 0.21 | -2.19 ± 0.21
54 | AAUCAGCAAUAUUACGAGAG | -1.82 ± 0.15 | -1.13 ± 0.13
55 | GGGAAGCAAUAUUACGUAGC | -1.84 ± 0.18 | -1.37 ± 0.16
56 | CUCCAGCAAUAUUACGUCCG | -2.63 ± 0.11 | -1.73 ± 0.12
57 | CCUGAGCAAUAUUACGCAAG | -3.97 ± 0.24 | -2.49 ± 0.19
58 | AGGGAGCAAUAUUACGACCA | -1.14 ± 0.18 | -0.171 ± 0.19
59 | AUCAAGCAAUAUUACGUCCU | -0.37 ± 0.088 | 0.533 ± 0.12
60 | GUGUAGCAAUAUUACGCUUG | -1.07 ± 0.16 | -1.57 ± 0.27
61 | UCACAGCAAUAUUACGGACA | -1.22 ± 0.099 | -0.687 ± 0.099
62 | AUCGAGCAAUAUUACGCAAA | -2.86 ± 0.16 | -2.38 ± 0.26
63 | CUCGAGCAAUAUUACGCUGU | – | -2.66 ± 0.44
64 | GAUAAGCAAUAUUACGUAUA | -1.81 ± 0.12 | -1.01 ± 0.11
65 | CCAGAGCAAUAUUACGCUAU | -3.78 ± 0.43 | -2.26 ± 0.37
66 | ACUUAGCAAUAUUACGGCCU | -0.24 ± 0.1 | 0.312 ± 0.11
67 | AUUAAGCAAUAUUACGUGUA | -2.57 ± 0.14 | -1.66 ± 0.13
68 | CCUUAGCAAUAUUACGUCGA | – | -2.67 ± 0.34
69 | UCAGAGCAAUAUUACGAAUU | – | -2.24 ± 0.37
70 | GGCCAGCAAUAUUACGCGUA | -1.07 ± 0.11 | -0.484 ± 0.1
71 | UCGAAGCAAUAUUACGAUUU | -4.4 ± 0.39 | -1.97 ± 0.23
72 | UAGAAGCAAUAUUACGUGUU | -3.84 ± 0.14 | -2.42 ± 0.11
73 | AAACAGCAAUAUUACGUACU | -0.273 ± 0.06 | -0.159 ± 0.073
74 | AUCUAGCAAUAUUACGUGCA | -0.394 ± 0.15 | -0.423 ± 0.18
75 | GGAGAGCAAUAUUACGCAAU | -3.02 ± 0.2 | -2.55 ± 0.31
76 | CGCUAGCAAUAUUACGACGC | – | -1.92 ± 0.17
77 | UGACAGCAAUAUUACGGAGC | -4.35 ± 0.39 | -2.91 ± 0.19
78 | AGAAAGCAAUAUUACGAAUG | -2.38 ± 0.15 | -2.25 ± 0.19
